Results as given in patent US20210324351, “STRUCTURE OF THE HUMAN CGAS-DNA COMPLEX AND USES THEREOF” (Presodent and Fellows of Harvard College, published 2021).

Assays:
[1] = target: mcGAS humanized K187/L195 (UniProt Q8C6L5 SEQ:1-361, N172K,R180L); assay: EMSA; gradient dialysis to 50 mM KCl, 4 C; low-MW complex ablated, higher-order oligomers retained; conditions: tags: untagged (6xHis-SUMO2 removed with SENP2)
Protocol: (§1) cGAS-DNA complexes were stably assembled using a method adapted from a nucleosome assembly gradient dialysis protocol (Lee and Narlikar (2001) Current protocols in molecular biology Chapter 21, Unit 21.26), and complex formation was measured by electrophoretic mobility shift analysis. Briefly, a concentration gradient of recombinant protein (0.2, 0.4, 2, 10 μM) was incubated with 45 bp dsDNA (2 μM) in a high-salt buffer containing 20 mM HEPES-NaOH pH 7.8, […], 1 mM DTT at 4° C. for 20 min. The reconstitution mixture was then transferred into 8-10 kDa molecular weight cut-off dialysis tubing (Spectrum Labs), and placed into a beaker of the high-salt buffer. The KCl concentration was reduced gradually by slowly replacing high-salt buffer with low-salt buffer (20 mM HEPES-KOH pH 7.5, 50 mM KCl, 1 mM DTT) with a peristaltic pump (Bio-Rad) at a rate of […] for 48 hr at 4° C. After gradient dialysis, reactions were supplemented to 5% glycerol, and subsequently separated on a 2% agarose gel in 0.5×TBE buffer at 4° C. […] Alternatively, where indicated in FIGS. 8A and 8C, cGAS-DNA complexes were assembled by incubating directly in reaction buffer containing 20 mM HEPES-NaOH pH 7.8, […], 1 mM DTT at 4° C. for 20 min and analyzed by electrophoretic mobility shift analysis as indicated above. […]

[2] = target: T1, hcGAS K187N/L195R (hcGAS*) (Homo sapiens, UniProt Q8N884 SEQ:1-366); assay: EMSA; gradient dialysis to 50 mM KCl, 4 C; stable low-MW complex restored, oligomers unaffected; conditions: tags: untagged (6xHis-SUMO2 removed with SENP2); chain copies: 2 (2:2 complex with DNA, stated)
T1 chain: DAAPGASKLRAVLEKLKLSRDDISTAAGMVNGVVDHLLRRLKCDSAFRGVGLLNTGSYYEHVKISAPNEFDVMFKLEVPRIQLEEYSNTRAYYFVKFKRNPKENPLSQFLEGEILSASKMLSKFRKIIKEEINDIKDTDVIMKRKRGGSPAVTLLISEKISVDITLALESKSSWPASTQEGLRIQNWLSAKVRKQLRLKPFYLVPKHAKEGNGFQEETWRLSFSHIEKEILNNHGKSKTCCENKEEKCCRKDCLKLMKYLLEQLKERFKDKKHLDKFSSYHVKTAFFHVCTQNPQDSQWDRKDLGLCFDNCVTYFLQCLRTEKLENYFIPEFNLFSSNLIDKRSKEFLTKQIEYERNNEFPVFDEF
Protocol: as §1

[3] = target: hcGAS catalytic domain WT (Homo sapiens, UniProt Q8N884 SEQ:1-366); assay: EMSA; gradient dialysis to 50 mM KCl, 4 C; preferentially higher-order oligomers; conditions: tags: untagged (6xHis-SUMO2 removed with SENP2)
Protocol: as §1

[4] = target: mcGAS catalytic domain WT (UniProt Q8C6L5 SEQ:1-361); assay: EMSA; gradient dialysis to 50 mM KCl, 4 C; minimal complex plus higher-order oligomers; conditions: tags: untagged (6xHis-SUMO2 removed with SENP2)
Protocol: as §1

Measured: binding result

Chain of mcGAS humanized K187/L195 (Q8C6L5 147-507 N172K/R180L): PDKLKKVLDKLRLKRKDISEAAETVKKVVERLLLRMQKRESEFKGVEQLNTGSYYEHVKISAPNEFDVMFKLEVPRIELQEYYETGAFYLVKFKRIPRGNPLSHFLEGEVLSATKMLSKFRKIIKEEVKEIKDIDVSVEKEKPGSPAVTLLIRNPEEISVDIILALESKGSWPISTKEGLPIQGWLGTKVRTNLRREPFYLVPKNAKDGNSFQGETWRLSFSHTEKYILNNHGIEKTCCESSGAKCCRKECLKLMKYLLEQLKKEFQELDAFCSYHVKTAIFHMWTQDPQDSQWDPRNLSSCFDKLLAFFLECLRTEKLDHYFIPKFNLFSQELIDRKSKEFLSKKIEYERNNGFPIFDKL
Chain of mcGAS catalytic domain WT (Q8C6L5 147-507): as the sequence (Q8C6L5 147-507 N172K/R180L) above, with K26N, L34R counted along it

B1: 45 bp interferon stimulatory DNA (dsDNA)
DNA 1: TACAGATCTACTAGTGATCTATGACTGATCTGTACATGATCTACA
DNA 2: TGTAGATCATGTACAGATCAGTCATAGATCACTAGTAGATCTGTA
binds: all assays above
